We go through 1 variant from IntAct's records for PubMed 16767699.

To fix the notation:
B1: Septin-11 (Homo sapiens), Q9NVA2 (parent)
chain: MAVAVGRPSNEELRNLSLSGHVGFDSLPDQLVNKSTSQGFCFNILCVGETGIGKSTLMDTLFNTKFESDPATHNEPGVRLKARSYELQESNVRLKLTIVDTVGFGDQINKDDSYKPIVEYIDAQFEAYLQEELKIKRSLFNYHDTRIHACLYFIAPTGHSLKSLDLVTMKKLDSKVNIIPIIAKADTIAKNELHKFKSKIMSELVSNGVQIYQFPTDEETVAEINATMSVHLPFAVVGSTEEVKIGNKMAKARQYPWGVVQVENENHCDFVKLREMLIRVNMEDLREQTHTRHYELYRRCKLEEMGFKDTDPDSKPFSLQETYEAKRNEFLGELQKKEEEMRQMFVMRVKEKEAELKEAEKELHEKFDLLKRTHQEEKKKVEDKKKELEEEVNNFQKKKAAAQLLQSQAQQSGAQQTKKDKDKKNASFT
partner: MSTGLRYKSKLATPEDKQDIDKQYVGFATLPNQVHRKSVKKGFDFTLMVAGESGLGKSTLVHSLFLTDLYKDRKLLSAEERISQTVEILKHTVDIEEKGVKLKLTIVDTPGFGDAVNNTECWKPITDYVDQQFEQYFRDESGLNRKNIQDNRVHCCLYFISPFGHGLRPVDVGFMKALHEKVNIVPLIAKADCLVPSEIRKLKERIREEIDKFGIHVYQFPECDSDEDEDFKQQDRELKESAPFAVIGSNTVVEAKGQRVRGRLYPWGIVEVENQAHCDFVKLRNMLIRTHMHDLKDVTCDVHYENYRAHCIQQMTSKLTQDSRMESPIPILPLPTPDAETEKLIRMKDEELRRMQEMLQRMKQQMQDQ

This experiment covers variants of B1. The note with it: with sept5_human SEPTIN5, Q99719.
In the case of S55N, the “effect of a mutation on the interaction” value is reported as “disrupting interaction”.
